Experimental data published in patent publication US12338277.

How the values were obtained:
Test in all cases: cell-based or functional assay
[1] = target: HIV-1 Env of pseudovirus CAP210.2.00.E8 (HIV-1)
[2] = target: HIV-1 envelope of pseudovirus 191084 B7-19 (HIV-1)
[3] = target: HIV-1 envelope of pseudovirus WEAU_d15_410_787 (HIV-1)
[4] = target: HIV-1 envelope of pseudovirus 263-8 (HIV-1)
[5] = target: HIV-1 envelope of pseudovirus ZM109F.PB4 (HIV-1)
[6] = target: HIV-1 Env of pseudovirus 3016.v5.c45 (HIV-1)
[7] = target: HIV-1 envelope spike of pseudovirus BaL.26 (HIV-1)
[8] = target: HIV-1 envelope of pseudovirus P1981_C5_3 (HIV-1)
[9] = target: HIV-1 envelope spike of pseudovirus SC422661.8 (HIV-1)
[10] = target: HIV-1 envelope of pseudovirus 3103.v3.c10 (HIV-1)
[11] = target: HIV-1 Env of pseudovirus C2101.c01 (HIV-1)
[12] = target: HIV-1 Env of pseudovirus BJOX028000.10.3 (HIV-1)
[13] = target: HIV-1 Env of pseudovirus HIV-0013095-2.11 (HIV-1)
[14] = target: HIV-1 Env of pseudovirus CNE17 (HIV-1)
[15] = target: HIV-1 Env of pseudovirus X1632_S2_B10 (HIV-1)
[16] = target: HIV-1 envelope of pseudovirus T250-4 (HIV-1)
[17] = target: HIV-1 envelope of pseudovirus R2184.c04 (HIV-1)
[18] = target: HIV-1 envelope of pseudovirus 89-F1_2_25 (HIV-1)
[19] = target: HIV-1 envelope of pseudovirus THRO4156.18 (HIV-1)
[20] = target: HIV-1 Env of pseudovirus Ce1086_B2 (HIV-1)
[21] = target: HIV-1 Env of pseudovirus SC422661.8 (HIV-1)
[22] = target: HIV-1 envelope of pseudovirus CNE52 (HIV-1)
[23] = target: HIV-1 Env of pseudovirus CNE58 (HIV-1)
[24] = target: HIV-1 envelope of pseudovirus 191821_E6_1 (HIV-1)
[25] = target: HIV-1 Env of pseudovirus Ce0393_C3 (HIV-1)
[26] = target: HIV-1 envelope of pseudovirus Ce0393_C3 (HIV-1)
[27] = target: HIV-1 envelope of pseudovirus ZM197M.PB7 (HIV-1)
[28] = target: HIV-1 Env of pseudovirus ZM233M.PB6 (HIV-1)
[29] = target: HIV-1 Env of pseudovirus BJOX010000.06.2 (HIV-1)
[30] = target: HIV-1 Env of pseudovirus REJO4541.67 (HIV-1)
[31] = target: HIV-1 envelope of pseudovirus BJOX010000.06.2 (HIV-1)
[32] = target: HIV-1 Env of pseudovirus 3415.v1.c1 (HIV-1)
[33] = target: HIV-1 envelope of pseudovirus BJOX015000.11.5 (HIV-1)
[34] = target: HIV-1 envelope of pseudovirus 231966.c02 (HIV-1)
[35] = target: HIV-1 Env of pseudovirus Du422.1 (HIV-1)
[36] = target: HIV-1 Env of pseudovirus QH0692.42 (HIV-1)
[37] = target: HIV-1 Env of pseudovirus THRO4156.18 (HIV-1)
[38] = target: HIV-1 Env of pseudovirus X1254_c3 (HIV-1)
[39] = target: HIV-1 envelope of pseudovirus BJOX028000.10.3 (HIV-1)
[40] = target: HIV-1 envelope of pseudovirus Q23.17 (HIV-1)
[41] = target: HIV-1 envelope of pseudovirus T255-34 (HIV-1)
[42] = target: HIV-1 envelope of pseudovirus REJO4541.67 (HIV-1)
[43] = target: HIV-1 Env of pseudovirus 246F C1G (HIV-1)
[44] = target: HIV-1 envelope of pseudovirus CAP45.2.00.G3 (HIV-1)
[45] = target: HIV-1 Env of pseudovirus 249M B10 (HIV-1)
[46] = target: HIV-1 envelope of pseudovirus 62357_14_03_4589 (HIV-1)
[47] = target: HIV-1 envelope of pseudovirus T251-18 (HIV-1)
[48] = target: HIV-1 Env of pseudovirus Du156.12 (HIV-1)
[49] = target: HIV-1 envelope of pseudovirus CNE8 (HIV-1)
[50] = target: HIV-1 envelope of pseudovirus CNE5 (HIV-1)

Sequence of 10-1074 (antibody) (VH): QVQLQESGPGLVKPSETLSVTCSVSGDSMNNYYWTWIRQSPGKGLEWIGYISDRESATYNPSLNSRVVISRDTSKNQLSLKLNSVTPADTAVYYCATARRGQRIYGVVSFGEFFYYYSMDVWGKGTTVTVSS
Sequence of 10-1074 (antibody) (V domain): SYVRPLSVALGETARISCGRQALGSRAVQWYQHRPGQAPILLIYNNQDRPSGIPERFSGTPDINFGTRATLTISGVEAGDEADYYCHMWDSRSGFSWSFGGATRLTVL

In the case of 10-1074 (antibody), the IC80 (TZM-bl neutralization) [1] is reported as greater than 50 µg/mL, the IC50 (TZM-bl neutralization) [2] is reported as 0.032 µg/mL and the IC50 (TZM-bl neutralization) [3] is reported as 0.104 µg/mL. It also gave an IC50 (TZM-bl neutralization) [4] of 0.666 µg/mL, an IC50 (TZM-bl neutralization) [5] greater than 50 µg/mL and an IC80 (TZM-bl neutralization) [6] greater than 50 µg/mL. The IC50 (TZM-bl neutralization assay) [7] was 0.033 µg/mL, the IC80 (TZM-bl neutralization assay) [7] was 0.124 µg/mL and the IC50 (TZM-bl neutralization) [8] was 0.005 µg/mL. It also gave an IC50 (TZM-bl neutralization assay) [9] of 0.145 µg/mL, an IC80 (TZM-bl neutralization assay) [9] of 0.392 µg/mL and an IC50 (TZM-bl neutralization) [10] of 0.037 µg/mL. For the same substance, the IC80 (TZM-bl neutralization) [11] was greater than 50 µg/mL, the IC80 (TZM-bl neutralization) [12] was greater than 50 µg/mL and the IC80 (TZM-bl neutralization) [13] was greater than 50 µg/mL. For the same substance, the IC80 (TZM-bl neutralization) [14] was 13.3 µg/mL, the IC80 (TZM-bl neutralization) [15] was greater than 50 µg/mL and the IC50 (TZM-bl neutralization) [16] was less than 0.001 µg/mL. It also gave an IC50 (TZM-bl neutralization) [17] greater than 50 µg/mL, an IC50 (TZM-bl neutralization) [18] greater than 50 µg/mL and an IC50 (TZM-bl neutralization) [19] greater than 50 µg/mL. It also gave an IC80 (TZM-bl neutralization) [20] greater than 50 µg/mL, an IC80 (TZM-bl neutralization) [21] of 0.418 µg/mL and an IC50 (TZM-bl neutralization) [22] of 1.23 µg/mL. It also gave an IC80 (TZM-bl neutralization) [23] of 0.968 µg/mL, an IC50 (TZM-bl neutralization) [24] greater than 50 µg/mL and an IC80 (TZM-bl neutralization) [25] greater than 50 µg/mL. It also gave an IC50 (TZM-bl neutralization) [26] greater than 50 µg/mL, an IC50 (TZM-bl neutralization) [27] greater than 50 µg/mL and an IC80 (TZM-bl neutralization) [28] of 0.349 µg/mL. It also gave an IC80 (TZM-bl neutralization) [29] greater than 50 µg/mL, an IC80 (TZM-bl neutralization) [30] greater than 50 µg/mL and an IC50 (TZM-bl neutralization) [31] greater than 50 µg/mL. The IC80 (TZM-bl neutralization) [32] was greater than 50 µg/mL, the IC50 (TZM-bl neutralization) [33] was greater than 50 µg/mL and the IC50 (TZM-bl neutralization) [34] was greater than 50 µg/mL. The IC80 (TZM-bl neutralization) [35] was 0.166 µg/mL, the IC80 (TZM-bl neutralization) [36] was 0.929 µg/mL and the IC80 (TZM-bl neutralization) [37] was greater than 50 µg/mL. The IC80 (TZM-bl neutralization) [38] was 0.297 µg/mL, the IC50 (TZM-bl neutralization) [39] was greater than 50 µg/mL and the IC50 (TZM-bl neutralization) [40] was 0.006 µg/mL. It also gave an IC50 (TZM-bl neutralization) [41] greater than 50 µg/mL, an IC50 (TZM-bl neutralization) [42] greater than 50 µg/mL and an IC80 (TZM-bl neutralization) [43] of 0.111 µg/mL. For the same substance, the IC50 (TZM-bl neutralization) [44] was greater than 50 µg/mL, the IC80 (TZM-bl neutralization) [45] was greater than 50 µg/mL and the IC50 (TZM-bl neutralization) [46] was greater than 50 µg/mL. The IC50 (TZM-bl neutralization) [47] was 1.08 µg/mL, the IC80 (TZM-bl neutralization) [48] was 0.076 µg/mL and the IC50 (TZM-bl neutralization) [49] was greater than 50 µg/mL. It also gave an IC50 (TZM-bl neutralization) [50] greater than 50 µg/mL.
